Laboratory results taken from publication PMC6297230, “Structural basis of meiotic telomere attachment to the nuclear envelope by MAJIN-TERB2-TERB1” (Nature Communications, 2018).
Changes are numbered by the printed parent chain. Names may count otherwise. “And” between values parts separate entries of the source, which are not always exact repeats. Equal values may be shown once. Each block holds one molecule with its values, some of them ahead of it.

T1: His6–TRF1_(TRFH) (human, UniProt P54274 62-268)
T1 construct: source: E. coli BL21 (DE3), co-purified with MBP–TERB1 fusions
T1 sequence (looked up): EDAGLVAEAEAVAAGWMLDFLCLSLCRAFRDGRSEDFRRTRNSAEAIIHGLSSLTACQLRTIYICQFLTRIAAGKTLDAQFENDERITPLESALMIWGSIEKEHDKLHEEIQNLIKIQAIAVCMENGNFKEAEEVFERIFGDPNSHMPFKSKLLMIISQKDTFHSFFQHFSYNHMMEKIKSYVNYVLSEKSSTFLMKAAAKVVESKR

T2: full length TERB2 (1–220) (human, UniProt Q8NHR7 1-220)
T2 construct: human TERB2, canonical isoform Q8NHR7, full length, amino acids 1-220; source: E. coli BL21 (DE3), co-expressed with MAJIN and TERB1, purified (Ni-NTA, amylose, ion exchange, SEC)
T2 sequence (looked up): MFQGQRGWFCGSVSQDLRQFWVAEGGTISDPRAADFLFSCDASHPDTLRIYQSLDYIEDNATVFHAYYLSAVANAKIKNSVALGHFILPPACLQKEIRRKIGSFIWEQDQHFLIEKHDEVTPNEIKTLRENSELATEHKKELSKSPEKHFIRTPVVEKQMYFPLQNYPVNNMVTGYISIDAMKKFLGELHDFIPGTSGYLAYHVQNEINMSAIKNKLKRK

B1: FAM random dsDNA (145 bp) (dsDNA)
DNA 1: TTCCAGGGTTCCATGGAGATAAAGGTCAATAAATTAGAGTTAGAACTAGAAAGTGCCAAACAGAAATTTGGAGAAATCACAGACACCTATCAGAAAGAAATTGAGGACAAAAAGATATCAGAATAATAACCATGGATATCGAATT
DNA 2: AATTCGATATCCATGGTTATTATTCTGATATCTTTTTGTCCTCAATTTCTTTCTGATAGGTGTCTGTGATTTCTCCAAATTTCTGTTTGGCACTTTCTAGTTCTAACTCTAATTTATTGACCTTTATCTCCATGGAACCCTGGAA
B2: full length TERB2 (1–220) (natural protein)
chain: T2 sequence (looked up)
B3: TERB2 N-terminal end (amino acids 1–107) (domain or fragment, human, UniProt Q8NHR7 1-107, looked up)
chain: MFQGQRGWFCGSVSQDLRQFWVAEGGTISDPRAADFLFSCDASHPDTLRIYQSLDYIEDNATVFHAYYLSAVANAKIKNSVALGHFILPPACLQKEIRRKIGSFIWE
notes: Forms large aggregates in isolation; source: E. coli BL21 (DE3), co-expressed with TERB1, purified (Ni-NTA, amylose, ion exchange, SEC)
B4: TERB1 TRF1-binding domain (amino acids 561–658) (domain or fragment, human, UniProt Q8NA31 561-658, looked up)
chain: TDPFTLCSDIINKEVVSFLATPSCSEMLTYRCSGCIAVEKSLNSRNFSKLLHSCPYQCDRHKVIVEAEDRYKSELRKSLICNKKILLTPRRRQRLSNE
notes: human TERB1, canonical isoform Q8NA31, amino acids 561-658; The discussion prints 568–658 once for TRFB; also called TERB1_(TRFB); TRFB; source: E. coli BL21 (DE3), co-expressed with TRF1 TRFH and/or TERB2, purified (Ni-NTA, amylose, ion exchange, SEC)
B5: MBP–TERB1_(TRFB) partially phosphorylated by CDK1-CyclinB (domain or fragment, human, UniProt Q8NA31 561-658, looked up)
chain: B4 chain
modifications: only partially phosphorylated by CDK1-CyclinB (residue not named for this experiment)
notes: human TERB1, canonical isoform Q8NA31, amino acids 561-658; source: E. coli BL21 (DE3), co-purified with His6–TRF1 TRFH, then incubated with phosphorylated CDK1-CyclinB and ATP
B6: TERB1 TRF1-binding domain (amino acids 561–658) T648E (domain or fragment, human, UniProt Q8NA31 561-658, looked up)
chain: B4 chain with T88E
notes: human TERB1, canonical isoform Q8NA31, amino acids 561-658, phosphomimetic T648E; it may be an MBP fusion as in the phosphorylation assays; also called TERB1_(TRFB) T648E; source: E. coli BL21 (DE3), purified
B7: TERB1 TERB2-binding site (amino acids 585–642) (domain or fragment, human, UniProt Q8NA31 585-642, looked up)
chain: SEMLTYRCSGCIAVEKSLNSRNFSKLLHSCPYQCDRHKVIVEAEDRYKSELRKSLICN
notes: human TERB1, canonical isoform Q8NA31, amino acids 585-642; Forms large aggregates in isolation; also called TERB1T2B; T2B; source: E. coli BL21 (DE3), co-expressed with TERB2, purified (Ni-NTA, amylose, ion exchange, SEC)
B8: TERB2 C-terminus (amino acids 168–220) (domain or fragment)
chain: PVNNMVTGYISIDAMKKFLGELHDFIPGTSGYLAYHVQNEINMSAIKNKLKRK
B9: TRF homology domain of TRF1 (amino acids 62–268) (domain or fragment, human, UniProt P54274 62-268, looked up)
chain: T1 sequence (looked up)
notes: Dimer by SEC-MALS; also called TRF1_(TRFH); source: E. coli BL21 (DE3), purified (Ni-NTA, amylose, ion exchange, SEC; 10% glycerol, room temperature)

Legend:
TERB1 TBM (Homo sapiens) = TERB1 TBM (Homo sapiens) (UniProt Q8NA31); details: cited from earlier work
[1] = molecular target: GST-TERB1 TBM (Homo sapiens) (UniProt Q8NA31); details: cited from earlier work
[2] = molecular target: MAJIN core, truncated (amino acids 1–106) (human); assay: SEC-MALS; purified (co-expressed) samples at > 1 mg/ml on Superdex 200 Increase 10/300 GL in 20 mM Tris pH 8.0, 250 mM KCl, 2 mM DTT
[3] = molecular target: TRF homology domain of TRF1 (amino acids 62–268) (human) (UniProt P54274); assay: SEC-MALS; relative binding affinities estimated from dissociation of TRF1 TRFH–TERB1 complexes upon serial dilution (Supplementary Fig. 13a–d)
[4] = molecular target: MAJIN N-terminal structural core (amino acids 1–112) (human); assay: SEC-MALS; purified (co-expressed) samples at > 1 mg/ml on Superdex 200 Increase 10/300 GL in 20 mM Tris pH 8.0, 250 mM KCl, 2 mM DTT
TRF1 full length = TRF1 full length (human, UniProt P54274 1-439); assay: EMSA; apparent, Hill fit; EMSA: 20 mM Tris pH 8.0, 250 mM KCl, 1 h at 4 °C, 3% glycerol, 0.5% agarose in 0.5x TBE; 25 nM FAM-DNA for Kd (protein as oligomer), 0.3 uM DNA for display; details: protein: recombinant; tags: tag removed (TEV); chain copies: 2; label: 5' 6-FAM; blunt
[5] = molecular target: MAJIN core, truncated (amino acids 1–106) (human); assay: SEC-MALS; purified (co-expressed) samples at > 1 mg/ml on Superdex 200 Increase 10/300 GL in 20 mM Tris pH 8.0, 250 mM KCl, 2 mM DTT; remark: listed apart in the source
[6] = molecular target: MAJIN N-terminal structural core (amino acids 1–112) (human); assay: as above; remark: listed apart in the source
Target sequence in this assay (Q3KP22 1-112): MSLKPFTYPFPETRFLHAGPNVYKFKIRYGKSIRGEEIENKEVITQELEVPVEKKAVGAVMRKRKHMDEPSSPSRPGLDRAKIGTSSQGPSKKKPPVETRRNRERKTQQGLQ

[7] = molecular target: B4; assay: as above; details: both partners purified
[8] = molecular target: B9; assay: as above; details: both partners purified
His6–TRF1_(TRFH) = molecular target: T1, His6–TRF1_(TRFH); assay: SEC-MALS; co-purified His6–TRF1 TRFH complexes with MBP–TERB1 TRFB (9 µM) or MBP–TERB1 TBM (130 µM) incubated with 9 µM phosphorylated CDK1-CyclinB in 40 mM Tris pH 7.5, 250 mM KCl, 20 mM MgCl2, 2 mM ATP, 10 mM DTT, 10 min at 30 °C and 50 min at 22 °C; also SDS–PAGE with ProQ-Diamond; details: both partners purified
[9] = molecular target: B9; assay: SEC-MALS; relative binding affinities estimated from dissociation of TRF1 TRFH–TERB1 complexes upon serial dilution (Supplementary Fig. 13a–d); details: both partners purified
[10] = molecular target: T2, full length TERB2 (1–220); assay: SEC-MALS; purified (co-expressed) samples at > 1 mg/ml on Superdex 200 Increase 10/300 GL in 20 mM Tris pH 8.0, 250 mM KCl, 2 mM DTT; details: both partners purified
[11] = molecular target: B3; assay: as above; details: both partners purified
[12] = molecular target: MAJIN core (amino acids 1–112) F73E Y75E (human); assay: as above
[13] = molecular target: MAJIN core (amino acids 1–112) K24M K26E R28E K31D R34E R81D (human); assay: as above
[14] = molecular target: MAJIN_(Core+BP1)-TERB2–TERB1_(TRFB) complex (1–147, 1–220, 561–658) (human) (UniProt Q8NHR7); assay: SEC-MALS; complex reconstituted by adding TRF1 TRFH to purified MAJIN–TERB2–TERB1(TRFB) (Supplementary Fig. 12c); details: scale: TRF1 TRFH chains per 2:2:2 MAJIN–TERB2–TERB1 complex
[15] = molecular target: the molecule itself; assay: SEC-MALS; purified (co-expressed) samples at > 1 mg/ml on Superdex 200 Increase 10/300 GL in 20 mM Tris pH 8.0, 250 mM KCl, 2 mM DTT

Sequence of TRF1 full length (P54274 whole entry, the tested form may be a part): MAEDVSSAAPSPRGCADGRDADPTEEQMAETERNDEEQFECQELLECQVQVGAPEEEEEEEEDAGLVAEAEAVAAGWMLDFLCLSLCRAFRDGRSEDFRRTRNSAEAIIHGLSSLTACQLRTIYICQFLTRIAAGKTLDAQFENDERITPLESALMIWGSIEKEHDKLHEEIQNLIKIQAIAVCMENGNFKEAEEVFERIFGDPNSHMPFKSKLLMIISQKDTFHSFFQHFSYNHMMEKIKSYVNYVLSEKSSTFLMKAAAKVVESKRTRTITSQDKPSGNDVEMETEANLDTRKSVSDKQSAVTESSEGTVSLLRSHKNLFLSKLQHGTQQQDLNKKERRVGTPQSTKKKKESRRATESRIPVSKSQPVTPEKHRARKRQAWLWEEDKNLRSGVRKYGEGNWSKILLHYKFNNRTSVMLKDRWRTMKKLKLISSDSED

Molecule: TRF1 TRFH (from UniProt P54274)
Kd (TERB1 TBM (Homo sapiens)): 5600 nM
Kd [1]: 75 nM

stoichiometry N (MAJIN chains in the 2:2 complex) [2]: 2
Molecule: MAJIN core, truncated (amino acids 1–106) (domain or fragment)

fold weaker binding than TERB1 TRFB [3]: > 100 fold
Molecule: TERB1TBM (amino acids 642–658) (from UniProt Q8NA31 642-658) (peptide)

stoichiometry N (MAJIN chains in the 2:2:2 complex) [4]: 2
stoichiometry N (MAJIN chains in the 2:2 complex) [4]: 2
Molecule: MAJIN N-terminal structural core (amino acids 1–112) (domain or fragment)

Molecule: B1
Kd (TRF1 full length): 100 nM

stoichiometry N (binder chains per target chain (2:2)) [5]: 1
Molecule: PVNNMVTGYISIDAMKKFLGELHDFIPGTSGYLAYHVQNE (domain or fragment) [TERB2 C-terminus, truncated (amino acids 168–207)]

Molecule: B2
stoichiometry N (binder chains per target chain (2:2:2)) [6]: 1

Molecule: B3
stoichiometry N [7]: 1 binder chains per target chain (2:1:1 TRF1:TERB1:TERB2)

Molecule: B4
stoichiometry N [8]: 0.5 binder chains per target chain (2:1 TRF1:TERB1) and 0.5 binder chains per target chain (2:1:1 TRF1:TERB1:TERB2)

Molecule: B5
stoichiometry N (His6–TRF1_(TRFH)): 0.5 binder chains per target chain (2:1 TRF1:TERB1)

Molecule: B6
fold higher affinity than wild-type TERB1 TBM [9]: ≥ 10 fold

Molecule: B7
stoichiometry N [10]: 1 binder chains per target chain (2:2:2)
stoichiometry N [11]: 1 binder chains per target chain (1:1)

Molecule: B8
stoichiometry N (binder chains per target chain (2:2)) [6]: 1
stoichiometry N (binder chains per target chain (1:1)) [12]: 1
stoichiometry N (binder chains per target chain (1:1)) [13]: 1

Molecule: B9
stoichiometry N [14]: 4
stoichiometry N [15]: 2 chains in the oligomer
